Assay in all cases: purified protein
Common to all, as to type: biochemical, Shewanella oneidensis
Holding throughout (conditions): 25 °C, 200 mM sodium phosphate, pH 7.5 in table title, pH 7.0 in methods

Substrate in data set [1]: CCC(=O)SCCNC(=O)CCNC(=O)[C@H](O)C(C)(C)COP(=O)(O)OP(=O)(O)OC[C@H]1O[C@@H](n2cnc3c(N)ncnc32)[C@H](O)[C@@H]1OP(=O)(O)O
Substrate in data set [2]: CCCCCCCC(=O)SCCNC(=O)CCNC(=O)[C@H](O)C(C)(C)COP(=O)(O)OP(=O)(O)OC[C@H]1O[C@@H](n2cnc3c(N)ncnc32)[C@H](O)[C@@H]1OP(=O)(O)O
Substrate in data set [3]: CC(=O)SCCNC(=O)CCNC(=O)[C@H](O)C(C)(C)COP(=O)(O)OP(=O)(O)OC[C@H]1O[C@@H](n2cnc3c(N)ncnc32)[C@H](O)[C@@H]1OP(=O)(O)O
Substrate in data set [4]: CCCC(=O)SCCNC(=O)CCNC(=O)[C@H](O)C(C)(C)COP(=O)(O)OP(=O)(O)OC[C@H]1O[C@@H](n2cnc3c(N)ncnc32)[C@H](O)[C@@H]1OP(=O)(O)O

Substitutions are numbered along the chain they refer to. Names and notes keep the numbering of the source.

B1: SoYbgC (S. oneidensis YbgC) (Shewanella oneidensis MR-1) (protein)
chain: MTFNWPISVYYEDTDAGGVVYHSNYLNFFERARTEWLKALGVSQTALLADDTAFVVKRAELDFKKAARFEQNLIVETKVIELKKASLVFHQRLVDHLGDCYCEGTVLVACVALSRMRPRAIPLNIVQEFDSAS
The Km is the concentration of substrate that gives half-maximal velocity. The term kcat denotes the number of substrate molecules converted per active site and unit of time at saturation. By kcat/Km is commonly meant the second-order rate constant that governs catalysis at low substrate concentration. As to B1, the Km in “purified protein [1]” worked out at 4.8 ± 0.6 µM; in “purified protein [2]” it was 34 ± 4 µM; in the data set “purified protein [3]”, 3.5 ± 0.4 µM; in the data set “purified protein [4]”, 17 ± 2 µM. Besides, the kcat came to 3.9 ± 5 s⁻¹ in the data set “purified protein [1]”, 0.15 ± 0.01 s⁻¹ in the data set “purified protein [2]”, 8 ± 0.7 s⁻¹ in “purified protein [3]” and 1.3 ± 0.1 s⁻¹ in “purified protein [4]”. Also, the kcat/Km in “purified protein [1]” turned out to be 810000 M⁻¹ s⁻¹; in the data set “purified protein [2]”, 4400 M⁻¹ s⁻¹; in the data set “purified protein [3]”, 2.3e+06 M⁻¹ s⁻¹; in “purified protein [4]” it was 76000 M⁻¹ s⁻¹.

B2: SoYbgC (S. oneidensis YbgC) (Shewanella oneidensis MR-1; D15N) (protein)
chain: B1 chain with D15N
For B2, the Km in “purified protein [3]” is listed as 231 ± 37 µM.

For the origin of these results see publication PMC5479800, “Thioesterase YbgC affects motility by modulating c-di-GMP levels in Shewanella oneidensis” (Scientific Reports, 2017).
